Reference: publication PMC4746669, “Attenuation of ligand-induced activation of angiotensin II type 1 receptor signaling by the type 2 receptor via protein kinase C” (Scientific Reports, 2016)

Tests used:
[1] = biological target: T1, FLAG-AT2R-CFP (angiotensin II type 2 receptor) (human, UniProt P50052 1-363); assay: co-IP; 293T cells, with or without AII (Suppl. Fig. S3); details not shown; conditions: partners not purified
T1 construct: Human angiotensin II type 2 receptor (AT2R); cDNA by RT-PCR from human umbilical vein endothelial cells; printed primers run from the codon after the initial methionine to the last codon; FLAG tag inserted after the initial methionine; subcloned EcoRI-NotI into pCXN2-CFPC; also called CFP-tagged AT2R; source: HeLa cells, transfected (FuGENE HD), in lysate or in living cells; not shown: FLAG, …
T1 sequence (looked up): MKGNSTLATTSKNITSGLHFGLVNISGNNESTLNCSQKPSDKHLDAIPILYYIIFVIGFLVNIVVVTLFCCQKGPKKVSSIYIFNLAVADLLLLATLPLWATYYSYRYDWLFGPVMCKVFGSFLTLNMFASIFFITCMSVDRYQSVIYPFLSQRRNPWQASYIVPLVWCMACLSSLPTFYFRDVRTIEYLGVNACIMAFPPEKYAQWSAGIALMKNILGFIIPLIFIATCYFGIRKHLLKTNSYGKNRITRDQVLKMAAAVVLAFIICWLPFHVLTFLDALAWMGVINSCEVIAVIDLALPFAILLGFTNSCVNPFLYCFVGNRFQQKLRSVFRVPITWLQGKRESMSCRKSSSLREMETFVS

[2] = biological target: T1, FLAG-AT2R-CFP (angiotensin II type 2 …); assay: co-IP; HeLa cells co-transfected with HA-AT1R-YFP and Flag-AT2R-CFP, serum starved, with or without losartan or PD123319 pre-treatment and AII stimulation; NP-40 lysis buffer (10 mM Tris-HCl pH 7.4, 150 mM NaCl, 5 mM EDTA, 0.5% NP-40, 10% glycerol); anti-FLAG antibody with protein A-Sepharose; blot with anti-HA; conditions: partners not purified

fold enhancement of the association by AII treatment (against no AII) [1]: 2.4 fold | fold enhancement of the association by AII treatment (against no AII) [2]: 1.6 fold
B1: HA-AT1R-YFP (angiotensin II type 1 receptor) (receptor, human, UniProt P30556 1-359, looked up)
chain: MILNSSTEDGIKRIQDDCPKAGRHNYIFVMIPTLYSIIFVVGIFGNSLVVIVIYFYMKLKTVASVFLLNLALADLCFLLTLPLWAVYTAMEYRWPFGNYLCKIASASVSFNLYASVFLLTCLSIDRYLAIVHPMKSRLRRTMLVAKVTCIIIWLLAGLASLPAIIHRNVFFIENTNITVCAFHYESQNSTLPIGLGLTKNILGFLFPFLIILTSYTLIWKALKKAYEIQKNKPRNDDIFKIIMAIVLFFFFSWIPHQIFTFLDVLIQLGIIRDCRIADIVDTAMPITICIAYFNNCLNPLFYGFLGKKFKRYFLQLLKYIPPKAKSHSNLSTKMSTLSYRPSDNVSSSTKKPAPCFEVE
notes: Human angiotensin II type 1 receptor (AT1R); cDNA by RT-PCR from human umbilical vein endothelial cells; printed primers run from the codon after the initial methionine to the last codon; HA tag inserted after the initial methionine; subcloned EcoRI-NotI into pCXN2-YFPC; The reverse primer also encodes a stretch behind the NotI site that is lost on subcloning EcoRI-NotI into pCXN2-YFPC; also …
